Assay results: patent US20240092930A1 (MABWELL SHANGHAI BIOSCIENCE, published 2024)
Values belong to the binder of their own block, whether it stands above or below them.

Columns and labels:
[1] = biological target: T1, human Trop-2 on the surface of cells (CHO/Trop-2 cells; BxPC-3 cells; NCI-N87 cells) (human, UniProt P09758 27-323); assay: cell-based or functional assay
T1 sequence (looked up): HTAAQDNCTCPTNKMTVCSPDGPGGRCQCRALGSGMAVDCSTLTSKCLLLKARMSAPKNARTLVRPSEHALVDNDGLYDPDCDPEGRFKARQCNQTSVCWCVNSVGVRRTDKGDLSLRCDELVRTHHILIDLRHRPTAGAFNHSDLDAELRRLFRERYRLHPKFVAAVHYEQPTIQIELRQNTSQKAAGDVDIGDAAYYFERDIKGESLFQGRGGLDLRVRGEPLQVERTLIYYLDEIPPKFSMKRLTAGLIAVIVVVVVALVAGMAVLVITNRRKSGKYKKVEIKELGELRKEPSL

[2] = biological target: T2, recombinant human Trop-2-his protein (ACCESSION NO.: NP_002344.2, AA 1-274) (human, UniProt P09758 27-274); assay: BLI, antibody on AHC sensor, Trop-2-his 23, 30, 45, 75 nM
T2 construct: range 27-274; also called recombinant human Trop-2 protein; recombinant human Trop-2 extracellular domain; not shown: his tag
T2 sequence (looked up): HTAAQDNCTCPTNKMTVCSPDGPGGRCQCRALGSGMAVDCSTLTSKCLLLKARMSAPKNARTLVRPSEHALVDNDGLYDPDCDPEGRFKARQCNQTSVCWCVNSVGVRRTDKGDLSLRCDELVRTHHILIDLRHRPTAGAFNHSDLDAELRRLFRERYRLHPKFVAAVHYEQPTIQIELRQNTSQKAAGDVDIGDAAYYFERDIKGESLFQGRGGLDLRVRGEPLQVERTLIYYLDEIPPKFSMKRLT
Experimental: (§1) Affinities of the antibodies were determined by an assay including capturing Fc fragments of the antibodies with anti-human IgG Fc capture (AHC) biosensors using Octet QKe system instrument from Fortebio.
For the assay, each of the antibodies (h23-12, h4-3, and control antibody Sacituzumab) was diluted to 4 μg/ml in PBS, and was allowed to flow through the surface of an AHC biosensor (Cat.: 18-0015, PALL) for 120 s. Recombinant human Trop-2-his protein (ACCESSION NO.: NP_002344.2, AA 1-274) was used as a mobile phase. The Trop-2-his protein was used in following concentrations which corresponded to different antibodies: in case of h23-12, the Trop-2 was used in concentrations of 23, 30, 45, and 75 nM; in case of h4-3, it was used in concentrations of 23, 30, 45, and 60 nM; and in case of Sacituzumab, it was used in concentrations of 23, 30, 45, and 75 nM. The binding time was 100 s and the dissociation time was 300 s. When the assay was finished, data from which the response values of blank control had been deducted were fitted to a 1:1 Langmuir binding model using software, and then kinetic constants for antigen-antibody binding were calculated.

[3] = biological target: T2, recombinant human Trop-2-his protein …; assay: BLI, naked antibody on AHC sensor, Trop-2-his 60 nM, 300 s binding
Experimental: as §1
For the assay, SN38-labeled antibodies prepared as described above: h23-12-SN38, ch4-3-SN38, ch11-4-SN38, and positive control antibody Sacituzumab-SN38, as well as naked antibodies h23-12, ch4-3, ch11-4, and positive control antibody Sacituzumab were diluted to 4 μg/ml with PBS and allowed to flow through the surface of an AHC biosensor (Cat.: 18-0015, PALL) for 120 s. Recombinant human Trop-2-his protein (ACCESSION NO.: NP_002344.2, AA 1-274) was used as a mobile phase, and its concentration was 60 nM. The binding time was 300 s and the dissociation time was 300 s. When the assay was finished, data from which the response value of blank control had been deducted were fitted to a 1:1 Langmuir binding model using software, and then kinetic constants for antigen-antibody binding were calculated.

[4] = biological target: T2, recombinant human Trop-2-his protein …; assay: BLI, antibody on AHC sensor, Trop-2-his 60 nM
Experimental: 5-6 days after cell transfection, culture supernatants were purified through ProA affinity chromatography column to obtain different humanized antibodies. Affinities of the obtained antibodies were determined by an assay including capturing Fc fragments of the antibodies with anti-human IgG Fc capture (AHC) biosensors using Octet QKe system instrument from Fortebio. For the assay, each of the humanized antibodies and control antibody Sacituzumab was diluted to 4 μg/ml in PBS, and was allowed to flow through the surface of an AHC biosensor (Cat.: 18-0015, PALL) for 120 s. Recombinant human Trop-2-his protein (ACCESSION NO.: NP_002344.2, AA 1-274) was used as a mobile phase, and its concentration was 60 nM. The binding time was 100 s and the dissociation time was 300 s. When the assay was finished, data from which the response values of blank control had been deducted were fitted to a 1:1 Langmuir binding model using software, and then kinetic constants for antigen-antibody binding were calculated.
Affinities of the antibodies obtained from the combinations of mutants of murine antibody 11-4, chimeric antibody ch11-4 and control antibody Sacituzumab to recombinant human Trop-2-his protein were determined by ForteBio (Table 11).

[5] = biological target: T1, human Trop-2 on the surface of cells …; assay: FACS, CHO/Trop-2 cells
Experimental: Suspensions of CHO cells recombinantly expressing human Trop-2 (CHO/Trop-2 cells) were incubated with chimeric antibodies ch3-11, ch4-3, ch17-1, ch11-4, and ch23-12 (dilutions at concentrations of 30 μg/ml and 10 μg/ml, and serial dilutions of 9 concentrations obtained through 3-fold serially diluting a solution with an initial concentration of 5 μg/ml, 11 concentrations in total) for 30 min at 37° C. Controls as follows were set: (1) Positive Control (PC): control antibody Sacituzumab; (2) Negative Control (NC): IgG1 isotype control antibody NC-IgG1. The cells were washed 3 times with PBS, and 1:100 dilution of goat anti-human IgG-FITC (Cat.: F9512, Sigma) was added into the cell which then were incubated for 30 min. Then the cells were washed 3 times with PBS again, and the Mean Fluorescence Intensity (MFI) of the cells was measured by a flow cytometer (model B49007AD, SNAW31211, BECKMAN COULTER) to detect binding ability of the chimeric antibodies to human Trop-2 on the surface of CHO cells.

Internalization percentage, 1 h, BXPC-3 cells, FACS [1]: 32.4%
Kd [2]: 0.64 nM
koff [2]: 0.000114 s⁻¹
kon [2]: 178000 M⁻¹ s⁻¹
Kd [3]: 0.507 nM
B1: h23-12-25 (antibody, human IgG1, kappa, V domains shown)
VH: QVQLVQSGAEVKKPGASVKVSCKASGYTFTSYWMHWVRQAPGQGLEWMGEITPSDNYGSYNQKFKGRVTITRDTSTSTAYMELSSLRSEDTAVYYCARGHGNYVSFDYWGQGTLVTVSS
VL: DIQMTQSPSSLSASVGDRVTITCRASQDISNYLNWYQQKPGKAPKLLIYYTSRLESGVPSRFSGSGSGTDFTLTISSLQPEDFATYFCQQGYTLPPYTFGQGTKLEIKR
notes: also called h32-12

Internalization percentage, 1 h, BXPC-3 cells, FACS [1]: 37.4%
Kd [4]: 0.784 nM
Kd [2]: 0.941 nM
koff [2]: 0.000194 s⁻¹
kon [2]: 208000 M⁻¹ s⁻¹
EC50 [5]: 2.32 nM
Kd [3]: 0.583 nM
B2: Sacituzumab (antibody, human IgG1, kappa, V domains shown)
VH: QVQLQQSGSELKKPGASVKVSCKASGYTFTNYGMNWVKQAPGQGLKWMGWINTYTGEPTYTDDFKGRFAFSLDTSVSTAYLQISSLKADDTAVYFCARGGFGSSYWYFDVWGQGSLVTVSS
VL: DIQLTQSPSSLSASVGDRVSITCKASQDVSIAVAWYQQKPGKAPKLLIYSASYRYTGVPDRFSGSGSGTDFTLTISSLQPEDFAVYYCQQHYITPLTFGAGTKVEIKR
notes: expressed in HEK293; also called control antibody Sacituzumab; Saituzumab
